Results reported in the DeepSol protein solubility set.

Experiment: soluble on expression in E. coli; label from the status in PepcDB or PDB records

Sequence	soluble on expression in E. coli
MSLEQCYTDVTEFAIPASTQKLYLSPVLDGFNSEIIAYNLSTSPNLEQVQTMLEQAFTEKHYENTILHSDQGWQYQHDSYHQFLEGKGIQASMSRKGNSQDNGMMESFFGILKSEMFYGYEKTFKSLNQLEQAIVDYIDYYNNKRIKVKLKGLSPVQYRTKSFGEGHHHHHH	soluble
MLPPLPDFSLSVEQQFDLQKYRQQVRDISREDLEDLFIEVVRQKMAHENIFKGMIRQGS	soluble
GTGRSRLLEDFRNNRFPNLQLRDLIGHIVEFSQDQHGSRFIQQKLERATPAERQIVFNEILQAAYQLMTDVFGNYVIQKFFEFGSLDQKLALATRIRGHVLPLALQMYGCRVIQKALESISSDQQSEMVKELDGHVLKCVKDQNGNHVVQKCIECVQPQSLQFIIDAFKGQVFVLSTHPYGCRVIQRILEHCTAEQTLPILEELHQHTEQLVQDQYGNYVIQHVLEHGRPEDKSKIVSEIRGKVLALSQHKFASNVVEKCVTHASRAERALLIDEVCCQNDGPHSALYTMMKDQYANYVVQKMIDMAEPAQRKIIMHKIRPHITTLRKYTYGKHILAKLEKYYLKNSPDLG	soluble
MPKIKRVKKGKKLKPNVMIFCEGETEEAYLRLIKRKYSAVNIKSKLKVKTCRRQGEALVEYAVSCIRSMGKAERDNYDLFYVMYDKDEQTTESIENAVRCAQRHRPEIKTIFSNECFELWLLLHFEEVNRYMTRENLYGRLEKVLHLKDSYRNFKGAEVCKYLEEKVAIAFQNTNKNWLSPLEEMKINENPYTNFPKELCEMLAQKEVDF	not soluble
MKVYYECAPCFLRQAREAIDLATDDEELKLRVMENILELLSERFRRGQVSNELGTRMHRLIKDMTGSEDPYLDEKRRCNEIALRFLPTVRDYLECHSDLESHVKVAITGNIIDFGALGLDFDHDRGIQESLRAPLTINHVPLLEDRLREASEVLYLLDNTGEILFDRPLIEKLAGYDVSVKVAVKGEPILNDACMEDALEAGLDEVAEIVTTGTDSVGIVYSDLSDEFRDMLDGTELVIAKGMGNYEGLTEISDGSRDIFCLLNAKCSAIARDLGVARGDNVAVKI	not soluble
MSLSVNSRILWVDLENSPHVPFFKPIIEELEKHGYRVVITARDCFQVCGLADLYGLPYTRIGRHYGKHKALKVVGAVIRALQMRNTLARPLPSLAIAHGSRSQLLAAKILHIPALQLADYEFSNKMPSFLSSDWIMVPETIPAGLHWRNTSRISTYPGIKEDVYVPTFKPQTGILSELGILEKEIVVTIRPPASEAHYHNPKSDDLFYATVNWLSGIDNLRMVVLPRNSSQAAHIGKTWPALIGEAKMVIPDRVLDGLNLIWHSDLVISGGGTMNREAAALGVPVYSIFKGEIGAVDKYLASTGRLTLLETADDITNKVLIQKWERPSSPDHNPRPALKVIVDKILELVEGHHHHHH	not soluble
MGSDKIHHHHHHMEVEIVERNAFTAVGKKRTFSVENDAQKEKISQFWQEVNANGDAERINELAEFATIDGILGVCQMNGDQMDYYIAIESELTPPADMEKLTIPASKWAIFKSVGPLPNAIQKVWEYIYGEWFQTCNYTHGNAPELEVYTEGDTTAVDYYSEVWIPVVEKD	not soluble
MRSLISSLDLTREEVEEILKYAKEFKEGKEETIKASAVLFFSEPSTRTRLSFEKAARELGIETYLVSGSESSTVKGESFFDTLKTFEGLGFDYVVFRVPFVFFPYKEIVKSLNLRLVNAGDGTHQHPSQGLIDFFTIKEHFGEVKDLRVLYVGDIKHSRVFRSGAPLLNMFGAKIGVCGPKTLIPRDVEVFKVDVFDDVDKGIDWADVVIWLRLQKERQKENYIPSESSYFKQFGLTKERFEKVKLYMHPGPVNRNVDIDHELVYTEKSLIQEQVKNGIPVRKAIYKFLWT	soluble
MTALKVGSESWWQSKHGPEWQRLNDEMFEVTFWWRDPQGSEEYSTIKRVWVYITGVTDHHQNSQPQSMQRIAGTDVWQWTTQLNANWRGSYCFIPTERDDIFSAPSPDRLELREGWRKLLPQAIADPLNPQSWKGGLGHAVSALEMPQAPLQPGWDCPQAPEIPAKEIIWKSERLKNSRRVWIFTTGDVTAEERPLAVLLDGEFWAQSMPVWPVLTSLTHRQQLPPAVYVLIDAIDTTHRAHELPCNADFWLAVQQELLPLVKVIAPFSDRADRTVVAGQSFGGLSALYAGLHWPERFGCVLSQSGSYWWPHRGGQQEGVLLEKLKAGEVSAEGLRIVLEAGIREPMIMRANQALYAQLHPIKESIFWRQVDGGHDALCWRGGLMQGLIDLWQPLFHDRS	soluble
MQQLPKLDLKNKVSAQEWQLRVDLAACYRLLQMHGWDDLIHTHISVCIPGTEHILINAFGLAFEEITASNLVKIDIKGNIIDKDCPFEINPAGFTIHSAVHEVRHDDICALHVHTNETIAVASVEEGLLPLSQYSMFALASMSYHDYEGLAVNDDEKLRLQNDLGDKNFMLLRNHGALTMGKTIGDAFMHMYDLTRACQIQLQVMATGMKPIYAPQSIIDGIKAQANIVHDGETGGQKAWPAMLRRVYRNDPTFAE	not soluble
MADEVTIGFRFYPTEEELVSFYLRNQLEGRSDDSMHRVIPVLDVFEVEPSHLPNVAGVRCRGDAEQWFFFVPRQEREARGGRPSRTTGSGYWKATGSPGPVFSKDNKMIGAKKTMVFYTGKAPTGRKTKWKMNEYHAVDETVNASTIPKLRREFSLCRVYITTGSSRAFDRRPEGVLQTERMLTSDVAVAETSFRVESSLETSISGGEHIDVSMNTEFVDGLSEPMWDWEQLTWP	soluble
MSLTEDLNKRVEQAAQGITPQTKPDERRRYLGSLRERVLVRLNNTEVKDPKLTALFLKHITDFKGYTILINGNITDDGFLGEVEAACSKEDIPFTLVNNETAKTGPEDTAILVVAKTAINHPRVEINQVYPPEMPKTELSAPSKKHESFWHHLFHKDEGHHHHHH	soluble
MIKLVAFDLDGTIGNTLPMCIQAFKKATQPYIGHELSDEEMVHTFGLNEEGMIGCVVDEPYRQQALNDFYVIYKELHQEMCPTPFEGIRELIALLKQKGIIVALITGKGINSCDITLKQFNMKDSFAKVITGNAERNIKSEALKELLHDYHLAANEIVYVGDALSDITECRKANVMCLSAAWSIPQNEVTALENSNPKNVFYSISSLFKYL	not soluble
DYQIQISISDISEDRTEHQFTSNPEVKTPVGFEQHVESIPEMEDFGLSAAELMDESVPSDFQLDIGLVDDFLEIPSHETEVPQPKVASMQPDTNAKSQKPTVHRGELEAFIYGMGIDPNMVPSQNREQWFEQLGQSFSLMLIGLMETLHNRAVFKQTNRVNHTAFRKSENNPLKFSANLEDAIHNLYNRQTSSFLKPNAAIKEAFNDIENHEQALMQGVAGTVSSVMSLVEPNTIYSDALAKDNVINKVIPARKYAQSWKRFEGIHSQLTDELVNKESPFYLEDFAKHYELALKNKG	not soluble
MDVADISKKQSILKQFEREGVKNVLFTDCLRQHDENVKKHPVIRCLMFQIVPLVSKLIESTSRFHREEERCYCLMVIGVPNVGKSSLINALRRTYLKKGKASKVGAEPGITKAVLTKIQVCERPIIHLLDTPGVLPPRIENIETGMKLALCGTVLDHLVGEDVIADFLLFSLNRLERFSYVEKYSLEEPCDDIQHVLKCIAVKLGKTRRVKAITGVGNITVQLPDYSAAAYDFIRAFRKGELGKVMLD	not soluble
MEVKIEETDWDEGVPGISFLKDAFSREEISPPKDDKNRKKEEVRMKLESGEYSVVYRCPTFDEILNENGQKIDLVQCKNCFGFLSARTGGHMKNHKNQRCKPLNGPPEKKPKLDPQVVGNLQNHILDFVTESGVSLNIAESEKFRIFIISMIITGNPNVNVDEHQFLSGEWIRKTMKEKSCQYLDNIGAELKDPVSKGDACLILDYGRQLDDTFSIFVSYTNRSSGYFSLRVIPLAFTPLFEKKITEKTLDYILHATDRVGLPKEHVLKLKVVAEGATNMLKLGEYFDNCNLFTVCLSFSSKMCRKSFRSTETVEKFDNFIRKITCESDRKRNRNLWNDFLQTPALQSLINIYVLSLILLCFQLTEQLSRTPAQSRANEWLASYHCARDILHVFPQIADLKDDRIEPLVDELRQCKGVLEDCFEIFSLFENPLKLLEQPEQQIQNVAGCLAAVAKMAKLSIAHYTKITVTDVHLICAFLSPDSKNLKNFPAPKKNKAYRIVNTLMKDVVVPPPSLSQPILSPLLMAIKNDPSPIPTVSQEFNDYVQLVVSSKDATLAPLEFWAKYQERFPRMSEIAAKNFCVMSSPGVCGPSFIVLRSLFRVDRHSKFPDTTELMMISYLMANELK	not soluble
MAKDLLLEIGLEEMPAHVVTPSRIQLEEKVIKFLDEHHLDYETVQSFATPRRLAVKVTAIPEKQADVEEEVKGPAKKIALDAEGNWSKAAQGFVRGQGVTTEDIVFKELNGVEYVYVTKFTKGQSAKEVLTKLNDVITSLTFPVTMHWANYDFEYIRPIHWIVALLDDEVIPFKVLDVTTGQTSRGHRFLGDDVTFQHANEYEAKLKEQFVVVQPNERKQMIVDQANALAAEKNWQLALDEELLEEVTNLVEYPTAFVGSFDEKYLSVPDEVLVTSMKEHQRYFDVRNDQGLLMPHFIAVRNGDNVHLENVIKGNEKVLIARLEDAEFFYNEDKKLTIEACVEKLKNVTFHEKIGSIYEKMQRVALIAQIIGRKVGLSEDELEDLKRASEIYKFDLVTNMVGEFPELQGIMGEKYALLQGEKPAVATAIREHYLPTSSEGELPETAIGAVLALADKLDSVFSFFSVGMIPTGSNDPYALRRQTYGVIRIIEDKGWTFPLVQLQTEVDEAVNQDVEKYGVLLNEGQAEVVEFVKARLRQLLMTKNVRHDIIDAVVSAEQADLSKLFASANILKSRFEDQDFKPSMEALTRVINLAKKGQELLGDTEEGIDPSLFENKAEKELYQAVNDLSEAFATRTIAENYEALVNLRPLIDAYFNETMVMVEDEKVKQNRLKQLMQIAKMALSIASLDLLIVK	not soluble
MASDWRRQSTSRGIPNEGQNDEKGKPLIGRSFLLEIENRILRTNVAEGLHISGATIIDSFDDASPQCVISDHPMAQKLEKAKKDDPLFKNEKMLKIMPALLRQAVNRNIKVRTPERFLNQMNTWLDRQGKTTSATTSNSTIRGKPSFGRENSAKIERTTPRLVPRMPRVSSDQTSSRPKEERCFLRIDVPGKRPEIRNVSKESFSIVYSGRDTGFSIFKAAESSLVERRQREYDSFLKGKYEPSKKTFKFDERDNYCQFCQKTILGDRKDHERTDEHRNKARTQGITQTMERIVLNARLRAERQEAALKRNQRKSRESVMFVEKSKRANVEYEYGENEIKANWLMLKANTVEKTTEKTSILSPRRRQKRMRSLSSQGDI	not soluble
HHHHHHHHHHMLPTPYVKCDYDKVYEPAEDSFLILDCLEKEHDFLKQKFGNRLAIVCEIGSGSGIVTTFLMQNKIIPQENSIHLAVDINPWALEATLDTAKLNSCKSSFLEVIQADLNSSIRNNQVDVLIFNPPYVPAECVPDVPGSREEADQWLDLALLGGKDGMAITDKLLRQLEQILSPDGVAYILFCARNKPKEVIKRFVDTYKWNVKLIETRKAGWEVLSVYSFTR	not soluble
MHPTYSAVQARLLEANRLSPELLAKSLCIIGAHHVDYADIYCQRTAYESWHLEEGIVKSGSFQINQGVGVRAVSGDKTAFAYADSLCIDSINRSARAVRAIGAAGGKVSAKMPSETRGKPVCSASDPIAGLDSAAKVALLNKVEAIAKAADPRIVQVMAGLTCEYDMVYLARLDGKHAADIRPMVRLNVTVIAKQGERREQGSAGGGGRYDLAYFDENLVHRFVDAAVKQALTNLESRPAPAGEMTVVLGNGWPGVLLHEAVGHGLEGDFNRKGTSVFSGRIGERVAAKGVTVVDQGDIAGRRGSLNIDDEGNETRRTVLIEDGILVGYMQDETNARLTGTQSTGNGRRESYASAPMPRMTNTFMENGSYEPEEIIASIDKGIYAVNFGGGQVDITSGKFVFSASEAWWVEGGRLQYPVKGATIIGNGPEVLKHVSMIGNDTALDSGVGVCGKEGQSVPVGVGQPTLRIDAGLTVGGSAI	not soluble
